According to article PMC7268246, “Purification and immobilization of engineered glucose dehydrogenase: a new approach to producing gluconic acid from breadwaste” (Biotechnology for Biofuels, 2020):

Molecular target: the molecule itself
Assay: SEC; Superdex Increase 10x300GL column on an ÄKTA Pure system; Ni-NTA purified GDH dialysed into 100 mM HEPES pH 7.4, 200 mM MgCl2, 10% glycerol; run in one buffer only

B1: recombinant glucose dehydrogenase (GDH) from Sulfolobus solfataricus (enzyme, UniProt O93715 1-366, looked up)
chain: MKAIIVKPPNAGVQVKDVDEKKLDSYGKIKIRTIYNGICGTDREIVNGKLTLSTLPKGKDFLVLGHEAIGVVEESYHGFSQGDLVMPVNRRGCGICRNCLVGRPDFCETGEFGEAGIHKMDGFMREWWYDDPKYLVKIPKSIEDIGILAQPLADIEKSIEEILEVQKRVPVWTCDDGTLNCRKVLVVGTGPIGVLFTLLFRTYGLEVWMANRREPTEVEQTVIEETKTNYYNSSNGYDKLKDSVGKFDVIIDATGADVNILGNVIPLLGRNGVLGLFGFSTSGSVPLDYKTLQEIVHTNKTIIGLVNGQKPHFQQAVVHLASWKTLYPKAAKMLITKTVSINDEKELLKVLREKEHGEIKIRILWE
notes: glucose dehydrogenase (GDH) of Sulfolobus solfataricus; the discussion gives the monomer as 366 amino acid residues (41 kDa); the tagged construct has 43 kDa; also called engineered GDH; recombinant GDH; source: E. coli BL21-DE3 (pET30a), lysate heat treated at 70 °C, purified (Ni-NTA, dialysis, size exclusion chromatography)
stoichiometry N: 4
